Laboratory results taken from patent publication US20250218531A1 (ABSCI, published 2025).
Positions count from the first letter of the chain named. Where “and” joins values, the source holds several entries; their conditions need not be identical. Identical values can stand only once.

B1: Trastuzumab HCDR3 variant ARYYYGYGGYYFDY (Fab, V domains shown)
VH: EVQLVESGGGLVQPGGSLRLSCAASGFNIKDTYIHWVRQAPGKGLEWVARIYPTNGYTRYADSVKGRFTISADTSKNTAYLQMNSLRAEDTAVYYCARYYYGYGGYYFDYWGQGTLVTVSS
VL: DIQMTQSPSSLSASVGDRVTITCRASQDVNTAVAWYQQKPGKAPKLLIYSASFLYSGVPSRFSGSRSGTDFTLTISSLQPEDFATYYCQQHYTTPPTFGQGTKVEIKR
B2: Trastuzumab HCDR3 variant TRYYDGAGPYYMDY (Fab, V domains shown)
VH: B1 VH with A97T, Y101D, Y103A, G105P, F108M
VL: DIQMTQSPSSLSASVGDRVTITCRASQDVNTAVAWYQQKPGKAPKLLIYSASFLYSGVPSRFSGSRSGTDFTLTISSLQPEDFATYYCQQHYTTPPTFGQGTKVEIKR
B3: Trastuzumab HCDR3 variant ARYGYAPGFYYMDV (Fab, V domains shown)
VH: B1 VH with Y100G, G102A, Y103P, G105F, F108M, Y110V
VL: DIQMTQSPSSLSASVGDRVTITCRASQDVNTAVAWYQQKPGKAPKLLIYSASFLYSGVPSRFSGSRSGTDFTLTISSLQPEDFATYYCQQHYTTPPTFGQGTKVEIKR
B4: Trastuzumab HCDR3 variant ARYGGGYNMDY (Fab, V domains shown)
VH: EVQLVESGGGLVQPGGSLRLSCAASGFNIKDTYIHWVRQAPGKGLEWVARIYPTNGYTRYADSVKGRFTISADTSKNTAYLQMNSLRAEDTAVYYCARYGGGYNMDYWGQGTLVTVSS
VL: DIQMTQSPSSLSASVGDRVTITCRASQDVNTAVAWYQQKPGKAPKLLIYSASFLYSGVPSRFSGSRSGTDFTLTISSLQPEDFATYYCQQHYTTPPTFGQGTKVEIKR
B5: Trastuzumab HCDR3 variant ARWEDYYYMDY (Fab, V domains shown)
VH: B4 VH with Y99W, G100E, G101D, G102Y, N104Y
VL: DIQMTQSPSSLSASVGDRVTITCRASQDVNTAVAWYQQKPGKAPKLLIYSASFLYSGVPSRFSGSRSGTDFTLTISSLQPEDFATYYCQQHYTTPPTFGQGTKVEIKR
B6: Trastuzumab HCDR3 variant APYGPGYWYGV (Fab, V domains shown)
VH: B4 VH with R98P, G101P, N104W, M105Y, D106G, Y107V
VL: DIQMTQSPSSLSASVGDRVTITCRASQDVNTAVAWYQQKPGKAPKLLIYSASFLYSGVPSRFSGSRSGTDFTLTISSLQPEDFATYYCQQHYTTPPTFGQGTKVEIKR
B7: Trastuzumab HCDR3 variant TRYGLTFDMDY (Fab, V domains shown)
VH: B4 VH with A97T, G101L, G102T, Y103F, N104D
VL: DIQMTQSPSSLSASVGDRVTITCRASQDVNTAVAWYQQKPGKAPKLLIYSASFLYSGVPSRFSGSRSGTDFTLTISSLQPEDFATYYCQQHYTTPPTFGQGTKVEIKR
B8: Trastuzumab HCDR3 variant VRFYYDYYFDY (Fab, V domains shown)
VH: B4 VH with A97V, Y99F, G100Y, G101Y, G102D, N104Y, M105F
VL: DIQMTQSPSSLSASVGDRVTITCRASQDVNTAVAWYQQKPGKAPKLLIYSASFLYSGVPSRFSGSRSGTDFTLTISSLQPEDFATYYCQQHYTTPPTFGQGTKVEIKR
B9: Trastuzumab HCDR3 variant ARWYVSYDYDV (Fab, V domains shown)
VH: B4 VH with Y99W, G100Y, G101V, G102S, N104D, M105Y, Y107V
VL: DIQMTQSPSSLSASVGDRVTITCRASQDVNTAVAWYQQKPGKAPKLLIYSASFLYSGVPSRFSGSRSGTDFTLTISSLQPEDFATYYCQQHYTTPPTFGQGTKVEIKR
B10: Trastuzumab HCDR3 variant VRYGNSYYYDY (Fab, V domains shown)
VH: B4 VH with A97V, G101N, G102S, N104Y, M105Y
VL: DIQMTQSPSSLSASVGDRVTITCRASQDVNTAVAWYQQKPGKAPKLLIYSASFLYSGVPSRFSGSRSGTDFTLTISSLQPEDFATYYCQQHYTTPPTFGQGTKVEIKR
B11: Trastuzumab HCDR3 variant TRWGGYYYFDY (Fab, V domains shown)
VH: B4 VH with A97T, Y99W, G102Y, N104Y, M105F
VL: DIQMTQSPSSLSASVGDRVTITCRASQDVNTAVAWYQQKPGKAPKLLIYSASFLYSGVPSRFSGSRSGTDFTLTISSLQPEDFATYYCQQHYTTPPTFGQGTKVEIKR
B12: Trastuzumab HCDR3 variant ARYWGLGGYYFDH (Fab, V domains shown)
VH: EVQLVESGGGLVQPGGSLRLSCAASGFNIKDTYIHWVRQAPGKGLEWVARIYPTNGYTRYADSVKGRFTISADTSKNTAYLQMNSLRAEDTAVYYCARYWGLGGYYFDHWGQGTLVTVSS
VL: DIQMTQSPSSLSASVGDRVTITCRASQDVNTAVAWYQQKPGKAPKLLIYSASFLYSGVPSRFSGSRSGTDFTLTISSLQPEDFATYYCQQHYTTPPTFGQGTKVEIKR
B13: Trastuzumab HCDR3 variant TRYEYQDYYHFDY (Fab, V domains shown)
VH: B12 VH with A97T, W100E, G101Y, L102Q, G103D, G104Y, Y106H, H109Y
VL: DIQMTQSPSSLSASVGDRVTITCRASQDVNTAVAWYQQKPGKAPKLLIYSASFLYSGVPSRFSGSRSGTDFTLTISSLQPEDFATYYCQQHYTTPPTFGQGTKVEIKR
B14: Trastuzumab HCDR3 variant ARYYGYGYYYFHY (Fab, V domains shown)
VH: B12 VH with W100Y, L102Y, G104Y, D108H, H109Y
VL: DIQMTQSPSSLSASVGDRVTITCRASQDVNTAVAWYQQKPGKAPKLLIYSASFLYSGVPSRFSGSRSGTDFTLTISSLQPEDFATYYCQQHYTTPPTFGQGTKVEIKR
B15: Trastuzumab HCDR3 variant ARYYSYGQYAFDP (Fab, V domains shown)
VH: B12 VH with W100Y, G101S, L102Y, G104Q, Y106A, H109P
VL: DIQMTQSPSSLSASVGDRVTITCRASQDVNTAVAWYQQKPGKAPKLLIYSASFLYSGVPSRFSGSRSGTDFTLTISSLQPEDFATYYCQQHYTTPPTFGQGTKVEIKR
B16: Trastuzumab HCDR3 variant AVTDLDGLHSYRY (Fab, V domains shown)
VH: EVQLVESGGGLVQPGGSLRLSCAASGFNIKDTYIHWVRQAPGKGLEWVARIYPTNGYTRYADSVKGRFTISADTSKNTAYLQMNSLRAEDTAVYYCAVTDLDGLHSYRYWGQGTLVTVSS
VL: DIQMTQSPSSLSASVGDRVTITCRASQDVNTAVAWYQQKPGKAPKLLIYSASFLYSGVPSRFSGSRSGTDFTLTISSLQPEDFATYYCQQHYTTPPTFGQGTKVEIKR
B17: Trastuzumab HCDR3 variant SRYYAGGWYYFDY (Fab, V domains shown)
VH: B12 VH with A97S, W100Y, G101A, L102G, G104W, H109Y
VL: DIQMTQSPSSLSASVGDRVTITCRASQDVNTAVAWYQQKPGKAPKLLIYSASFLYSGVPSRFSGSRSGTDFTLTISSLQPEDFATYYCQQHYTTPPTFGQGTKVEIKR
B18: Trastuzumab HCDR3 variant VRYGGWGFWYFDY (Fab, V domains shown)
VH: B12 VH with A97V, W100G, L102W, G104F, Y105W, H109Y
VL: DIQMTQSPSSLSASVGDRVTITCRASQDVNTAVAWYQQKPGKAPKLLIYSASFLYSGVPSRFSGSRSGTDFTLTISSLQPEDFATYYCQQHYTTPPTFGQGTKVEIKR
B19: Trastuzumab HCDR3 variant VRYYGDGGYYFDY (Fab, V domains shown)
VH: B12 VH with A97V, W100Y, L102D, H109Y
VL: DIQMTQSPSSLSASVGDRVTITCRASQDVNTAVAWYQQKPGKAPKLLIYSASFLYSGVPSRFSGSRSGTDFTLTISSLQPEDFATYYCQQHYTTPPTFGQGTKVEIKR
B20: Trastuzumab HCDR3 variant TRYGSFHYYYFDV (Fab, V domains shown)
VH: B12 VH with A97T, W100G, G101S, L102F, G103H, G104Y, H109V
VL: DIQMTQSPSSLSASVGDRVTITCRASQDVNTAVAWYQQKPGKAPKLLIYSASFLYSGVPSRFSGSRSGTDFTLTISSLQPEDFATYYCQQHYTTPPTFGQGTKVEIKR
B21: Trastuzumab HCDR3 variant TRYGGYGYYYMDY (Fab, V domains shown)
VH: B12 VH with A97T, W100G, L102Y, G104Y, F107M, H109Y
VL: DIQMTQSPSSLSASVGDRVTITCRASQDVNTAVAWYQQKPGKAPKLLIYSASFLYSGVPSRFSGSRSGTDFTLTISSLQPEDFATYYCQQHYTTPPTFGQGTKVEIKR
B22: Trastuzumab HCDR3 variant VRYGFYGYYYFDY (Fab, V domains shown)
VH: B12 VH with A97V, W100G, G101F, L102Y, G104Y, H109Y
VL: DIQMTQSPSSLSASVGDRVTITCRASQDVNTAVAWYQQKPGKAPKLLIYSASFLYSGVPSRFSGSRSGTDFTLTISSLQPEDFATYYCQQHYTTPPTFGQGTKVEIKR
B23: Trastuzumab HCDR3 variant VRYGYGDYYYFDY (Fab, V domains shown)
VH: B12 VH with A97V, W100G, G101Y, L102G, G103D, G104Y, H109Y
VL: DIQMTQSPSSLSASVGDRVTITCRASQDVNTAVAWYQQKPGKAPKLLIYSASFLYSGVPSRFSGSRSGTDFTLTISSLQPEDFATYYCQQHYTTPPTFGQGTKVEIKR
B24: Trastuzumab HCDR3 variant TSIFSGGYYGLDS (Fab, V domains shown)
VH: B12 VH with A97T, R98S, Y99I, W100F, G101S, L102G, G104Y, Y106G, F107L, H109S
VL: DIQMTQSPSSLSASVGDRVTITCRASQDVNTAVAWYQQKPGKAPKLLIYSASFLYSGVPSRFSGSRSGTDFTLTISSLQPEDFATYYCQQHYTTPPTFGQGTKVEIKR
B25: Trastuzumab HCDR3 variant TRWLEGLSYFMDY (Fab, V domains shown)
VH: B12 VH with A97T, Y99W, W100L, G101E, L102G, G103L, G104S, Y106F, F107M, H109Y
VL: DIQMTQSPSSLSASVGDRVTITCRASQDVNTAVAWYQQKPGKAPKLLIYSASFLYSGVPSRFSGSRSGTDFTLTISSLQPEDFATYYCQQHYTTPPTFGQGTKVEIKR
B26: Trastuzumab HCDR3 variant VRWGVGAYYNFDY (Fab, V domains shown)
VH: B12 VH with A97V, Y99W, W100G, G101V, L102G, G103A, G104Y, Y106N, H109Y
VL: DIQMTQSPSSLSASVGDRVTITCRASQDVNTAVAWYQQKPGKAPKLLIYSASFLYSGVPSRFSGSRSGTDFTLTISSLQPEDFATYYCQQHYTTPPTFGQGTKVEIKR
B27: Trastuzumab HCDR3 variant ARYWYGGYYYFDY (Fab, V domains shown)
VH: B12 VH with G101Y, L102G, G104Y, H109Y
VL: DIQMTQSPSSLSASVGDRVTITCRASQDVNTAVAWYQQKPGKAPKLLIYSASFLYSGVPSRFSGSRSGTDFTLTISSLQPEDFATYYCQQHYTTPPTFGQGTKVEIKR
B28: Trastuzumab HCDR3 variant ARYYYDYYYYFDY (Fab, V domains shown)
VH: B12 VH with W100Y, G101Y, L102D, G103Y, G104Y, H109Y
VL: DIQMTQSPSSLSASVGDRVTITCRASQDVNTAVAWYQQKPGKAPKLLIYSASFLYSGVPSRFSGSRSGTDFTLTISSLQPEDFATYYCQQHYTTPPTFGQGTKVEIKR
B29: Trastuzumab HCDR3 variant TRYFFNGWYYFDV (Fab, V domains shown)
VH: B12 VH with A97T, W100F, G101F, L102N, G104W, H109V
VL: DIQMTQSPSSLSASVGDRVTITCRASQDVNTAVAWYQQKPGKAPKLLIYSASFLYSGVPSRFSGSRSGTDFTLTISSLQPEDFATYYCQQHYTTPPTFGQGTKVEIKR
B30: Trastuzumab HCDR3 variant VRYFYDGNYYFDL (Fab, V domains shown)
VH: B12 VH with A97V, W100F, G101Y, L102D, G104N, H109L
VL: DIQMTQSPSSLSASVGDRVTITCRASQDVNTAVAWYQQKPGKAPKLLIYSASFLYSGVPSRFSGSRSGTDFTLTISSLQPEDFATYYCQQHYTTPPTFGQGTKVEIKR
B31: Trastuzumab HCDR3 variant VRYGFDGSYYFDP (Fab, V domains shown)
VH: B12 VH with A97V, W100G, G101F, L102D, G104S, H109P
VL: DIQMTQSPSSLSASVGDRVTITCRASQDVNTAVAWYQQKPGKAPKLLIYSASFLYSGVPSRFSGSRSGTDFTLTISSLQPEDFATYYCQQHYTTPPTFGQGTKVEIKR
B32: Trastuzumab HCDR3 variant TRYGYGGPYWFDY (Fab, V domains shown)
VH: B12 VH with A97T, W100G, G101Y, L102G, G104P, Y106W, H109Y
VL: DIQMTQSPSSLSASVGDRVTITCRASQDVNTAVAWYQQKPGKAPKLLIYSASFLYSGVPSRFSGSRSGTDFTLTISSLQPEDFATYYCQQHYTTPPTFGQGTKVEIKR
B33: Trastuzumab HCDR3 variant ATYSTYYNYAFGI (Fab, V domains shown)
VH: B12 VH with R98T, W100S, G101T, L102Y, G103Y, G104N, Y106A, D108G, H109I
VL: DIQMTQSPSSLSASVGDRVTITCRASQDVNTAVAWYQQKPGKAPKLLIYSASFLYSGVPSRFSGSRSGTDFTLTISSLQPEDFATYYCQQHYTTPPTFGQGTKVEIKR
B34: Trastuzumab HCDR3 variant TRYLHDYYYYFDY (Fab, V domains shown)
VH: B12 VH with A97T, W100L, G101H, L102D, G103Y, G104Y, H109Y
VL: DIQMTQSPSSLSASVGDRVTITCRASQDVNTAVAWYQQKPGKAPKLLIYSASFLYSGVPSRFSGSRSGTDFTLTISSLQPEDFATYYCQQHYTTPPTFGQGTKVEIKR
B35: Trastuzumab HCDR3 variant ARYYGYGGYYFDY (Fab, V domains shown)
VH: B12 VH with W100Y, L102Y, H109Y
VL: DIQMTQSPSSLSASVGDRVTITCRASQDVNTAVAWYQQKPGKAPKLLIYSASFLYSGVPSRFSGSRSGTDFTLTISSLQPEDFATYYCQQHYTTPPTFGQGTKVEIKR
B36: Trastuzumab HCDR3 variant ASYGLDGYYYFDV (Fab, V domains shown)
VH: B12 VH with R98S, W100G, G101L, L102D, G104Y, H109V
VL: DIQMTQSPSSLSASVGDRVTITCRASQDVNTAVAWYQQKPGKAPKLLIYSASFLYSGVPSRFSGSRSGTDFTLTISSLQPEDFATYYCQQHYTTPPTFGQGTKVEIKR
B37: Trastuzumab HCDR3 variant TRYRGPYYYYFDP (Fab, V domains shown)
VH: B12 VH with A97T, W100R, L102P, G103Y, G104Y, H109P
VL: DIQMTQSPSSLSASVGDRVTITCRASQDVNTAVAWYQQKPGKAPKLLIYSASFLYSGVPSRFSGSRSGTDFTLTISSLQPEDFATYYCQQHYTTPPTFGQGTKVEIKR
B38: Trastuzumab HCDR3 variant ARYYGYGGYWYDT (Fab, V domains shown)
VH: B12 VH with W100Y, L102Y, Y106W, F107Y, H109T
VL: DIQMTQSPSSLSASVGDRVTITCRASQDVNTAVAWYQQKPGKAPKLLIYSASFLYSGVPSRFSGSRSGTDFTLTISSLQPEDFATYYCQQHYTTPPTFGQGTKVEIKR
B39: Trastuzumab HCDR3 variant TRNYYDYYYYFDY (Fab, V domains shown)
VH: B12 VH with A97T, Y99N, W100Y, G101Y, L102D, G103Y, G104Y, H109Y
VL: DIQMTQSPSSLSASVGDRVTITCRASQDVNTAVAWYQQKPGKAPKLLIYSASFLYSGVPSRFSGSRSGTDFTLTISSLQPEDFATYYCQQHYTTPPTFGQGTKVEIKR
B40: Trastuzumab HCDR3 variant VRYGSDVYYYFDI (Fab, V domains shown)
VH: B12 VH with A97V, W100G, G101S, L102D, G103V, G104Y, H109I
VL: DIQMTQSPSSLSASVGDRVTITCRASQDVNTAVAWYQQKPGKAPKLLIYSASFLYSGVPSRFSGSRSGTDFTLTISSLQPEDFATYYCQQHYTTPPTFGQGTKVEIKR
B41: Trastuzumab HCDR3 variant ARYYGYGGYYMDY (Fab, V domains shown)
VH: B12 VH with W100Y, L102Y, F107M, H109Y
VL: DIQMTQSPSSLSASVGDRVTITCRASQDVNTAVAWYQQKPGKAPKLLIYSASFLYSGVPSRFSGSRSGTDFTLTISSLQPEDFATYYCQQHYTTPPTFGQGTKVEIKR
B42: Trastuzumab HCDR3 variant TRYASGYFYAFDY (Fab, V domains shown)
VH: B12 VH with A97T, W100A, G101S, L102G, G103Y, G104F, Y106A, H109Y
VL: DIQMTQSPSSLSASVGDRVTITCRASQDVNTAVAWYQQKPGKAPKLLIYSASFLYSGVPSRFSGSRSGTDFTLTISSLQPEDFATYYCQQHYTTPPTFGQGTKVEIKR
B43: Trastuzumab HCDR3 variant TRYYYYGSYHFDY (Fab, V domains shown)
VH: B12 VH with A97T, W100Y, G101Y, L102Y, G104S, Y106H, H109Y
VL: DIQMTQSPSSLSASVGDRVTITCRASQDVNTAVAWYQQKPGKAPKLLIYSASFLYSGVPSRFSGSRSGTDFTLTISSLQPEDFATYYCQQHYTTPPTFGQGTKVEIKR
B44: Trastuzumab HCDR3 variant ARYYGYYYAFDY (Fab, V domains shown)
VH: EVQLVESGGGLVQPGGSLRLSCAASGFNIKDTYIHWVRQAPGKGLEWVARIYPTNGYTRYADSVKGRFTISADTSKNTAYLQMNSLRAEDTAVYYCARYYGYYYAFDYWGQGTLVTVSS
VL: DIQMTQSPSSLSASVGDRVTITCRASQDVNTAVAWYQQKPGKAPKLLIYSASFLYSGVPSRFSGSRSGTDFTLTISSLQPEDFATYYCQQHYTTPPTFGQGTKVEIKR
B45: Trastuzumab HCDR3 variant AAYWYGVYVFRY (Fab, V domains shown)
VH: B44 VH with R98A, Y100W, G101Y, Y102G, Y103V, A105V, D107R
VL: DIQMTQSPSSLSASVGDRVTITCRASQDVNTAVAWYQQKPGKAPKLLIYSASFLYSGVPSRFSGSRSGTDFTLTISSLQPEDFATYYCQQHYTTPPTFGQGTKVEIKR
B46: Trastuzumab HCDR3 variant AGYWYGSYSFDY (Fab, V domains shown)
VH: B44 VH with R98G, Y100W, G101Y, Y102G, Y103S, A105S
VL: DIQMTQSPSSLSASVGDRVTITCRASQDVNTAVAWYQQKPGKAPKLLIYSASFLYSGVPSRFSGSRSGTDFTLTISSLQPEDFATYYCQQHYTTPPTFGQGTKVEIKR
B47: Trastuzumab HCDR3 variant AANAAIFAAWGA (Fab, V domains shown)
VH: B44 VH with R98A, Y99N, Y100A, G101A, Y102I, Y103F, Y104A, F106W, D107G, Y108A
VL: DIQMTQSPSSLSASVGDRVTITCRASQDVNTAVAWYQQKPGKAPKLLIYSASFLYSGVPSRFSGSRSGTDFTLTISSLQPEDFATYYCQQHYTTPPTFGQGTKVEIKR
B48: Trastuzumab HCDR3 variant AASADFMYGVIR (Fab, V domains shown)
VH: B44 VH with R98A, Y99S, Y100A, G101D, Y102F, Y103M, A105G, F106V, D107I, Y108R
VL: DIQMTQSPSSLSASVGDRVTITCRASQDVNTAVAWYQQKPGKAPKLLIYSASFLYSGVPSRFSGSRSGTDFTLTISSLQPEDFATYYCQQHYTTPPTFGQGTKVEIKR
B49: Trastuzumab HCDR3 variant AKYAFGGWSYSP (Fab, V domains shown)
VH: B44 VH with R98K, Y100A, G101F, Y102G, Y103G, Y104W, A105S, F106Y, D107S, Y108P
VL: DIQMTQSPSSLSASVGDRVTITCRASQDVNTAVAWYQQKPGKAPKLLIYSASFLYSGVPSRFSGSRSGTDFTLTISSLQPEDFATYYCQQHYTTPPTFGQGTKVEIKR
B50: Trastuzumab HCDR3 variant AAYGPQGYAFAV (Fab, V domains shown)
VH: B44 VH with R98A, Y100G, G101P, Y102Q, Y103G, D107A, Y108V
VL: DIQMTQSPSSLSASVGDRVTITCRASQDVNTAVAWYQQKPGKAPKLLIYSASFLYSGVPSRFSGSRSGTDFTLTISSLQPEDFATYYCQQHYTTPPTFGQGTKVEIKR

The binders below were run against T1, HER2 (human epidermal growth factor receptor 2) (human, UniProt P04626 23-629) (assay: SPR).
T1 construct: also called Antigen: HER2

| Binder | Kd | log(KD (M)) |
| --- | --- | --- |
| B1 | 15 nM | -7.82 |
| B2 | 23.7 nM and 23.6 nM | -7.63 |
| B3 | 9.72 nM | -8.01 |
| B4 | 14.3 nM | -7.84 |
| B5 | 21.8 nM | -7.66 |
| B6 | 9.15 nM | -8.04 |
| B7 | 13.9 nM | -7.86 |
| B8 | 26.9 nM | -7.57 |
| B9 | 17.6 nM | -7.75 |
| B10 | 26.9 nM | -7.57 |
| B11 | 9.79 nM | -8.01 |
| B12 | 16.5 nM | -7.78 |
| B13 | 18.5 nM | -7.73 |
| B14 | 20.2 nM | -7.7 |
| B15 | 19.4 nM | -7.71 |
| B16 | 23.3 nM | -7.63 |
| B17 | 11.8 nM | -7.93 |
| B18 | 6.76 nM | -8.17 |
| B19 | 5.35 nM | -8.27 |
| B20 | 8.73 nM | -8.06 |
| B21 | 12 nM | -7.92 |
| B22 | 16.5 nM | -7.78 |

| Binder | Kd | log(KD (M)) |
| --- | --- | --- |
| B23 | 25.1 nM | -7.6 |
| B24 | 8.57 nM | -8.07 |
| B25 | 2.4 nM | -8.62 |
| B26 | 12.1 nM | -7.92 |
| B27 | 19.7 nM | -7.71 |
| B28 | 8.44 nM | -8.07 |
| B29 | 0.94 nM | -9.03 |
| B30 | 22.9 nM | -7.64 |
| B31 | 13.2 nM | -7.88 |
| B32 | 14.3 nM | -7.84 |
| B33 | 22.6 nM | -7.65 |
| B34 | 22.7 nM | -7.64 |
| B35 | 8.05 nM | -8.09 |
| B36 | 19.3 nM | -7.71 |
| B37 | 12.1 nM | -7.92 |
| B38 | 8.19 nM | -8.09 |
| B39 | 7.54 nM | -8.12 |
| B40 | 19.9 nM | -7.7 |
| B41 | 9.91 nM | -8 |
| B42 | 9.14 nM | -8.04 |
| B43 | 6.82 nM | -8.17 |

These binders were tested against human epidermal growth factor receptor 2 (HER2) extracellular domain (human, UniProt P04626 23-629) (assay: SPR).

| Binder | Kd | log(KD (M)) |
| --- | --- | --- |
| B44 | 46.3 nM | -7.33 log(M) |
| B45 | 113 nM | -6.95 log(M) |
| B46 | 35.4 nM | -7.45 log(M) |
| B47 | 43.1 nM | -7.37 log(M) |
| B48 | 39.6 nM | -7.4 log(M) |
| B49 | 37.7 nM | -7.42 log(M) |
| B50 | 33.8 nM | -7.47 log(M) |
